# Reference: patent US20230250154A1 (CYTONICS, published 2023)
# T1: ADAMTS4 (human, UniProt O75173 213-685, limits assumed)
# T1 sequence (looked up): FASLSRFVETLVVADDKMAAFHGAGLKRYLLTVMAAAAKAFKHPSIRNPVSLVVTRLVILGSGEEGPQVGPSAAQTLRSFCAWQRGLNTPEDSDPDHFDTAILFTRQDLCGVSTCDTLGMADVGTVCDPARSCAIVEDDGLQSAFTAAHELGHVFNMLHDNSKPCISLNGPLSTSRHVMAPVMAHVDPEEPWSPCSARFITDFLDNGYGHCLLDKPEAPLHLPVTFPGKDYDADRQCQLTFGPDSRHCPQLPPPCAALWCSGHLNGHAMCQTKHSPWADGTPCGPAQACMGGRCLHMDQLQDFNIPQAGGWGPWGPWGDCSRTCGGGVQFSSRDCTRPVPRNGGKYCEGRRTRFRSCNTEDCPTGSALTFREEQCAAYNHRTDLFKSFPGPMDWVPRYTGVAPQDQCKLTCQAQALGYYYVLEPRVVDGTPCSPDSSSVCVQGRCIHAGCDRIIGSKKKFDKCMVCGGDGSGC
# T2: ADAMTS5 (human, UniProt Q9UNA0 262-622, limits assumed)
# T2 sequence (looked up): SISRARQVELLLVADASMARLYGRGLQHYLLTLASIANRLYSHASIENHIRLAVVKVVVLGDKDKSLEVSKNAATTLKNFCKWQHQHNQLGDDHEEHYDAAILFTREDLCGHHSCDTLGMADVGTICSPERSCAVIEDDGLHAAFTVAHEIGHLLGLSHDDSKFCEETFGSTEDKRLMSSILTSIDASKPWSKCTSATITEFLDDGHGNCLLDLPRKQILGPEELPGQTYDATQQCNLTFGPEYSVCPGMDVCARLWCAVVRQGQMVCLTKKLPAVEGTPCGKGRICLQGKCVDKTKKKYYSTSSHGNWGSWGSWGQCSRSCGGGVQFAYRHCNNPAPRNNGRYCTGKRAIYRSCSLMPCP
# What was measured:
# Assay in all cases: cell-based or functional assay
# [1] = biological target: T1, ADAMTS4
# [2] = biological target: T2, ADAMTS5
# [3] = biological target: MMP13 (human, UniProt P45452 104-471, limits assumed)
Protease Inhibition (% of WT) [1],Protease Inhibition (% of WT) [2],Protease Inhibition (% of WT) [3],Binder
91 % of WT,74 % of WT,120 % of WT,"Variant A2M, bait region SEQ ID NO 86 (other) SVSGKPQYMVLVPSLLHTETTEKGCVLLSYLNETVTVSASLESVRGNRSLFTDLEAENDVLHCVAFAVPKSSSNEEVMFLTVQVKGPTQEFKKRTTVMVKNEDSLVFVQTDKSIYKPGQTVKFRVVSMDENFHPLNELIPLVYIQDPKGNRIAQWQSFQLEGGLKQFSFPLSSEPFQGSYKVVVQKKSGGRTEHPFTVEEFVLPKFEVQVTVPKIITILEEEMNVSVCGLYTYGKPVPGHVTVSICRKYSDASDCHGEDSQAFCEKFSGQLNSHGCFYQQVKTKVFQLKRKEYEMKLHTEAQIQEEGTVVELTGRQSSEITRTITKLSFVKVDSHFRQGIPFFGQVRLVDGKGVPIPNKVIFIRGNEANYYSNATTDEHGLVQFSINTTNVMGTSLTVRVNYKDRSPCYGYQWVSEEHEEAHHTAYLVFSPSKSFVHLEPMSHELPCGHTQTVQAHYILNGGTLLGLKKLSFYYLIMAKGGIVRTGTHGLLVKQEDMKGHFSISIPVKSDIAPVARLLIYAVLPTGDVIGDSAKYDVENCLANKVDLSFSPSQSLPASHAHLRVTAAPQSVCALRAVDQSVLLMKPDAELSASSVYNLLPEKDLTGFPGPLNDQDDEDCINRHNVYINGITYTPVSSTNEKDMYSFLEDMGLKAFTNSKIRKPKMCPQLEQYEMHGPEGLRVGSELEGRGSKEEEGLGSIPENFFGVKLRKYFPETWIWDLVVVNSAGVAEVGVTVPDTITEWKAGAFCLSEDAGLGISSTASLRAFQPFFVELTMPYSVIRGEAFTLKATVLNYLPKCIRVSVQLEASPAFLAVPVEKEQAPHCICANGRQTVSWAVTPKSLGNVNFTVSAEALESQELCGTEVPSVPEHGRKDTVIKPLLVEPEGLEKETTFNSLLCPSGGEVSEELSLKLPPNVVEESARASVSVLGDILGSAMQNTQNLLQMPYGCGEQNMVLFAPNIYVLDYLNETQQLTPEIKSKAIGYLNTGYQRQLNYKHYDGSYSTFGERYGRNQGNTWLTAFVLKTFAQARAYIFIDEAHITQALIWLSQRQKDNGCFRSSGSLLNNAIKGGVEDEVTLSAYITIALLEIPLTVTHPVVRNALFCLESAWKTAQEGDHGSHVYTKALLAYAFALAGNQDKRKEVLKSLNEEAVKKDNSVHWERPQKPKAPVGHFYEPQAPSAEVEMTSYVLLAYLTAQPAPTSEDLTSATNIVKWITKQQNAQGGFSSTQDTVVALHALSKYGAATFTRTGKAAQVTIQSSGTFSSKFQVDNNNRLLLQQVSLPELPGEYSMKVTGEGCVYLQTSLKYNILPEKEEFPFALGVQTLPQTCDEPKAHTSFQISLSVSYTGSRSASNMAIVDVKMVSGFIPLKPTVKMLERSNHVSRTEVSSNHVLIYLDKVSNQTLSLFFTVLQDVPVRDLKPAIVKVYDYYETDEFAIAEYNAPCSKDLGNADYKDDDDKGASHHHHHH"
68 % of WT,108 % of WT,156 % of WT,"Variant A2M, bait region SEQ ID NO 88 (other) SVSGKPQYMVLVPSLLHTETTEKGCVLLSYLNETVTVSASLESVRGNRSLFTDLEAENDVLHCVAFAVPKSSSNEEVMFLTVQVKGPTQEFKKRTTVMVKNEDSLVFVQTDKSIYKPGQTVKFRVVSMDENFHPLNELIPLVYIQDPKGNRIAQWQSFQLEGGLKQFSFPLSSEPFQGSYKVVVQKKSGGRTEHPFTVEEFVLPKFEVQVTVPKIITILEEEMNVSVCGLYTYGKPVPGHVTVSICRKYSDASDCHGEDSQAFCEKFSGQLNSHGCFYQQVKTKVFQLKRKEYEMKLHTEAQIQEEGTVVELTGRQSSEITRTITKLSFVKVDSHFRQGIPFFGQVRLVDGKGVPIPNKVIFIRGNEANYYSNATTDEHGLVQFSINTTNVMGTSLTVRVNYKDRSPCYGYQWVSEEHEEAHHTAYLVFSPSKSFVHLEPMSHELPCGHTQTVQAHYILNGGTLLGLKKLSFYYLIMAKGGIVRTGTHGLLVKQEDMKGHFSISIPVKSDIAPVARLLIYAVLPTGDVIGDSAKYDVENCLANKVDLSFSPSQSLPASHAHLRVTAAPQSVCALRAVDQSVLLMKPDAELSASSVYNLLPEKDLTGFPGPLNDQDDEDCINRHNVYINGITYTPVSSTNEKDMYSFLEDMGLKAFTNSKIRKPKMCPQLEQYEMHGPEGLRVGIPENFFGVFYESDVMGRGHARLVHVEEPHTKLLRKYFPETWIWDLVVVNSAGVAEVGVTVPDTITEWKAGAFCLSEDAGLGISSTASLRAFQPFFVELTMPYSVIRGEAFTLKATVLNYLPKCIRVSVQLEASPAFLAVPVEKEQAPHCICANGRQTVSWAVTPKSLGNVNFTVSAEALESQELCGTEVPSVPEHGRKDTVIKPLLVEPEGLEKETTFNSLLCPSGGEVSEELSLKLPPNVVEESARASVSVLGDILGSAMQNTQNLLQMPYGCGEQNMVLFAPNIYVLDYLNETQQLTPEIKSKAIGYLNTGYQRQLNYKHYDGSYSTFGERYGRNQGNTWLTAFVLKTFAQARAYIFIDEAHITQALIWLSQRQKDNGCFRSSGSLLNNAIKGGVEDEVTLSAYITIALLEIPLTVTHPVVRNALFCLESAWKTAQEGDHGSHVYTKALLAYAFALAGNQDKRKEVLKSLNEEAVKKDNSVHWERPQKPKAPVGHFYEPQAPSAEVEMTSYVLLAYLTAQPAPTSEDLTSATNIVKWITKQQNAQGGFSSTQDTVVALHALSKYGAATFTRTGKAAQVTIQSSGTFSSKFQVDNNNRLLLQQVSLPELPGEYSMKVTGEGCVYLQTSLKYNILPEKEEFPFALGVQTLPQTCDEPKAHTSFQISLSVSYTGSRSASNMAIVDVKMVSGFIPLKPTVKMLERSNHVSRTEVSSNHVLIYLDKVSNQTLSLFFTVLQDVPVRDLKPAIVKVYDYYETDEFAIAEYNAPCSKDLGNADYKDDDDKGASHHHHHH"
101 % of WT,485 % of WT,1 % of WT,"Variant A2M, bait region SEQ ID NO 89 (other) SVSGKPQYMVLVPSLLHTETTEKGCVLLSYLNETVTVSASLESVRGNRSLFTDLEAENDVLHCVAFAVPKSSSNEEVMFLTVQVKGPTQEFKKRTTVMVKNEDSLVFVQTDKSIYKPGQTVKFRVVSMDENFHPLNELIPLVYIQDPKGNRIAQWQSFQLEGGLKQFSFPLSSEPFQGSYKVVVQKKSGGRTEHPFTVEEFVLPKFEVQVTVPKIITILEEEMNVSVCGLYTYGKPVPGHVTVSICRKYSDASDCHGEDSQAFCEKFSGQLNSHGCFYQQVKTKVFQLKRKEYEMKLHTEAQIQEEGTVVELTGRQSSEITRTITKLSFVKVDSHFRQGIPFFGQVRLVDGKGVPIPNKVIFIRGNEANYYSNATTDEHGLVQFSINTTNVMGTSLTVRVNYKDRSPCYGYQWVSEEHEEAHHTAYLVFSPSKSFVHLEPMSHELPCGHTQTVQAHYILNGGTLLGLKKLSFYYLIMAKGGIVRTGTHGLLVKQEDMKGHFSISIPVKSDIAPVARLLIYAVLPTGDVIGDSAKYDVENCLANKVDLSFSPSQSLPASHAHLRVTAAPQSVCALRAVDQSVLLMKPDAELSASSVYNLLPEKDLTGFPGPLNDQDDEDCINRHNVYINGITYTPVSSTNEKDMYSFLEDMGLKAFTNSKIRKPKMCPQLEQYEMHGPEGLRVGKEEEGLGSFYESDVMGRGHARLVHVEEPHTKLLRKYFPETWIWDLVVVNSAGVAEVGVTVPDTITEWKAGAFCLSEDAGLGISSTASLRAFQPFFVELTMPYSVIRGEAFTLKATVLNYLPKCIRVSVQLEASPAFLAVPVEKEQAPHCICANGRQTVSWAVTPKSLGNVNFTVSAEALESQELCGTEVPSVPEHGRKDTVIKPLLVEPEGLEKETTFNSLLCPSGGEVSEELSLKLPPNVVEESARASVSVLGDILGSAMQNTQNLLQMPYGCGEQNMVLFAPNIYVLDYLNETQQLTPEIKSKAIGYLNTGYQRQLNYKHYDGSYSTFGERYGRNQGNTWLTAFVLKTFAQARAYIFIDEAHITQALIWLSQRQKDNGCFRSSGSLLNNAIKGGVEDEVTLSAYITIALLEIPLTVTHPVVRNALFCLESAWKTAQEGDHGSHVYTKALLAYAFALAGNQDKRKEVLKSLNEEAVKKDNSVHWERPQKPKAPVGHFYEPQAPSAEVEMTSYVLLAYLTAQPAPTSEDLTSATNIVKWITKQQNAQGGFSSTQDTVVALHALSKYGAATFTRTGKAAQVTIQSSGTFSSKFQVDNNNRLLLQQVSLPELPGEYSMKVTGEGCVYLQTSLKYNILPEKEEFPFALGVQTLPQTCDEPKAHTSFQISLSVSYTGSRSASNMAIVDVKMVSGFIPLKPTVKMLERSNHVSRTEVSSNHVLIYLDKVSNQTLSLFFTVLQDVPVRDLKPAIVKVYDYYETDEFAIAEYNAPCSKDLGNADYKDDDDKGASHHHHHH"
